Test [1] deals with T1, yeast-displayed IL-11 L57P (human).
T1 sequence (P20809 22-199 with L57P, looked up): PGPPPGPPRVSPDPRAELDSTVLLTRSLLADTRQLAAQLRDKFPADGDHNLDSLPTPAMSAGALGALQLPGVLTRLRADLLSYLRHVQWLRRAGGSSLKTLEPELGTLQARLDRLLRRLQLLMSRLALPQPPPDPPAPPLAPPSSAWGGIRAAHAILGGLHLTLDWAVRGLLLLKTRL
Kind of test: flow cytometry on cells; yeast-displayed IL-11 variants incubated with varying concentrations of soluble IL-11R or mIL-11R overnight at room temperature, washed with BPBS; receptor detected with anti-his AF647, display with anti-c-myc; apparent Kd from the fraction bound of the expressing …. In general terms: In flow cytometry, cells or beads pass a laser one at a time.

Test [2] addresses yeast-displayed IL-11 GIPR (human). The test is described as above.
The target of test [3] is yeast-displayed IL-11 GIPR S60T (human). The test is described as above.
In another test the target is T2, human gp130-Fc, P40189.
T2 chain: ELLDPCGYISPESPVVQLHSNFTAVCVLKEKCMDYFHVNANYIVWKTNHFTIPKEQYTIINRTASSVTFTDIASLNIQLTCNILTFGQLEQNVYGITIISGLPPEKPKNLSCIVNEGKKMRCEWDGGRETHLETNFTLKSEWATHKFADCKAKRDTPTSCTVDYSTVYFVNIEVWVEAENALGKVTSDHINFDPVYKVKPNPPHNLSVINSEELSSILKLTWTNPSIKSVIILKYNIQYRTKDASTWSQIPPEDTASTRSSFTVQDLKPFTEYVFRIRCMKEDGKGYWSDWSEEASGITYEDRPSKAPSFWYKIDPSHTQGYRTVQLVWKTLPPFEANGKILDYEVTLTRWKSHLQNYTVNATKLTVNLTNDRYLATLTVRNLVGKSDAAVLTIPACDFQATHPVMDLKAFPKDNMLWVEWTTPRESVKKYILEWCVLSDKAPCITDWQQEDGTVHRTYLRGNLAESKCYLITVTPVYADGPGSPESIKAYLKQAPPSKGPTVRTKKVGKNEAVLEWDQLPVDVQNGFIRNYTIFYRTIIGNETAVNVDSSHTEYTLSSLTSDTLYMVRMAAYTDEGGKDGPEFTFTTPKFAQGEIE
Description: flow cytometry on yeast-displayed IL-11. As to conditions: chain shown with the change, 100 nM IL-11R added, read off a plot.

Where a chain is given by its changes, count along the chain named. In names and notes the source's numbering stands.

B1: soluble human IL-11 receptor extracellular domain, his-tagged (receptor)
chain: SPCPQAWGPPGVQYGQPGRSVKLCCPGVTAGDPVSWFRDGEPKLLQGPDSGLGHELVLAQADSTDEGTYICQTLDGALGGTVTLQLGYPPARPVVSCQAADYENFSCTWSPSQISGLPTRYLTSYRKKTVLGADSQRRSPSTGPWPCPQDPLGAARCVVHGAEFWSQYRINVTEVNPLGASTRLLDVSLQSILRPDPPQGLRVESVPGYPRRLRASWTYPASWPCQPHFLLKFRLQYRPAQHPAWSTVEPAGLEEVITDAVAGLPHAVRVSARDFLDAGTWSTWSPEAWGTPSTGTIPKEIPAWGQLHTQPEVEPQVDSPAPPRPSLQPHPRLLDHRDSVEQVAVLA
For the molecule B1, in test [1], the Kd was 0.71 nM and the fold improvement in IL-11R binding over WT IL-11 was 10 fold. Further, in test [2], the Kd stood at 0.12 nM and the fold improvement of apparent Kd over WT IL-11 was 70 fold.

B2: soluble mouse IL-11 receptor (receptor)
chain: SPCPQAWGPPGVQYGQPGRPVMLCCPGVSAGTPVSWFRDGDSRLLQGPDSGLGHRLVLAQVDSPDEGTYVCQTLDGVSGGMVTLKLGFPPARPEVSCQAVDYENFSCTWSPGQVSGLPTRYLTSYRKKTLPGAESQRESPSTGPWPCPQDPLEASRCVVHGAEFWSEYRINVTEVNPLGASTCLLDVRLQSILRPDPPQGLRVESVPGYPRRLHASWTYPASWRRQPHFLLKFRLQYRPAQHPAWSTVEPIGLEEVITDAVAGLPHAVRVSARDFLDAGTWSAWSPEAWGTPSTGPLQDEIPDWSQGHGQQLEAVVAQEDSPAPARPSLQPDPRPLDHRDPLEQVAVLA
Take B2: the Kd in test [2] came out at 1.5 nM; in test [3], 0.29 nM.

B3: yeast-displayed wild-type human IL-11, P20809 D19G; T21I; L57P; G62R (protein)
chain: T1 sequence (P20809 22-199 with L57P, looked up) with D19G, T21I, G62R
B3: the response (Normalized Fluorescence) with human gp130-Fc, P40189 (10 nM gp130-Fc) came to 28000; in the test with human gp130-Fc, P40189 (100 nM gp130-Fc), 35000; with human gp130-Fc, P40189 (1000 nM gp130-Fc), 40000.
